Laboratory results taken from patent US20200087373A1 (UNIVERSITY OF COPENHAGEN, published 2020).
Ends that are not written are not given here. * marks the point of attachment. C16 diacid = O=C(O)CCCCCCCCCCCCCCC(=O)*; Palmitoyl = CCCCCCCCCCCCCCCC(=O)*; Lauroyl = CCCCCCCCCCCC(=O)*

T1: human GIP receptor (human, UniProt P48546 22-466)
T1 construct: whole, on cells; Transiently transfected COS-7 cells expressing the human GIP receptor; also called hGIPR
T1 sequence (looked up): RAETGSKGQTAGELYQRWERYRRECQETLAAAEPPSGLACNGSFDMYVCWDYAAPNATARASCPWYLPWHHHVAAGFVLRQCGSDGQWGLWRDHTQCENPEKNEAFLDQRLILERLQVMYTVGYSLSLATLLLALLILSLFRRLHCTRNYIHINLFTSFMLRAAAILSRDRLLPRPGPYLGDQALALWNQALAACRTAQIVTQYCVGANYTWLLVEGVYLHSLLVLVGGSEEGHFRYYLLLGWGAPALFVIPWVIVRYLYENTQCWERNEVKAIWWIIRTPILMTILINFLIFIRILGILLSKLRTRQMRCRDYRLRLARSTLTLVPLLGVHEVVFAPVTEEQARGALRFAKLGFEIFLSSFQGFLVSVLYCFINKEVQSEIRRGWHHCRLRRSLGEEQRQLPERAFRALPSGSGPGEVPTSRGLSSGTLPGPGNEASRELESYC

B1: AT116 [hGIP(3-30)NH2-C12/18] (H18K) (peptide)
peptide: EGTFISDYSIAMDKIK(Lauroyl)QQDFVNWLLAQK-NH2
modifications: N-terminus assumed
SMILES: CCCCCCCCCCCC(=O)NCCCC[C@H](NC(=O)[C@@H](NC(=O)[C@H](CCCCN)NC(=O)[C@H](CC(=O)O)NC(=O)[C@H](CCSC)NC(=O)[C@H](C)NC(=O)[C@@H](NC(=O)[C@H](CO)NC(=O)[C@H](Cc1ccc(O)cc1)NC(=O)[C@H](CC(=O)O)NC(=O)[C@H](CO)NC(=O)[C@@H](NC(=O)[C@H](Cc1ccccc1)NC(=O)[C@@H](NC(=O)CNC(=O)[C@@H](N)CCC(=O)O)[C@@H](C)O)[C@@H](C)CC)[C@@H](C)CC)[C@@H](C)CC)C(=O)N[C@@H](CCC(N)=O)C(=O)N[C@@H](CCC(N)=O)C(=O)N[C@@H](CC(=O)O)C(=O)N[C@@H](Cc1ccccc1)C(=O)N[C@H](C(=O)N[C@@H](CC(N)=O)C(=O)N[C@@H](Cc1c[nH]c2ccccc12)C(=O)N[C@@H](CC(C)C)C(=O)N[C@@H](CC(C)C)C(=O)N[C@@H](C)C(=O)N[C@@H](CCC(N)=O)C(=O)N[C@@H](CCCCN)C(N)=O)C(C)C
B2: AT159 [hGIP(3-30)NH2[K16R; H18K; K30R]-C16diacid/18] (peptide)
peptide: EGTFISDYSIAMDRIK(C16 diacid)QQDFVNWLLAQR-NH2
modifications: N-terminus assumed
SMILES: CC[C@H](C)[C@H](NC(=O)[C@H](CO)NC(=O)[C@H](Cc1ccc(O)cc1)NC(=O)[C@H](CC(=O)O)NC(=O)[C@H](CO)NC(=O)[C@@H](NC(=O)[C@H](Cc1ccccc1)NC(=O)[C@@H](NC(=O)CNC(=O)[C@@H](N)CCC(=O)O)[C@@H](C)O)[C@@H](C)CC)C(=O)N[C@@H](C)C(=O)N[C@@H](CCSC)C(=O)N[C@@H](CC(=O)O)C(=O)N[C@@H](CCCNC(=N)N)C(=O)N[C@H](C(=O)N[C@@H](CCCCNC(=O)CCCCCCCCCCCCCCC(=O)O)C(=O)N[C@@H](CCC(N)=O)C(=O)N[C@@H](CCC(N)=O)C(=O)N[C@@H](CC(=O)O)C(=O)N[C@@H](Cc1ccccc1)C(=O)N[C@H](C(=O)N[C@@H](CC(N)=O)C(=O)N[C@@H](Cc1c[nH]c2ccccc12)C(=O)N[C@@H](CC(C)C)C(=O)N[C@@H](CC(C)C)C(=O)N[C@@H](C)C(=O)N[C@@H](CCC(N)=O)C(=O)N[C@@H](CCCNC(=N)N)C(N)=O)C(C)C)[C@@H](C)CC
B3: AT158 [hGIP(3-30)NH2[H18K]-C16diacid/18] (peptide)
peptide: EGTFISDYSIAMDKIK(C16 diacid)QQDFVNWLLAQK-NH2
modifications: N-terminus assumed
SMILES: CC[C@H](C)[C@H](NC(=O)[C@H](CO)NC(=O)[C@H](Cc1ccc(O)cc1)NC(=O)[C@H](CC(=O)O)NC(=O)[C@H](CO)NC(=O)[C@@H](NC(=O)[C@H](Cc1ccccc1)NC(=O)[C@@H](NC(=O)CNC(=O)[C@@H](N)CCC(=O)O)[C@@H](C)O)[C@@H](C)CC)C(=O)N[C@@H](C)C(=O)N[C@@H](CCSC)C(=O)N[C@@H](CC(=O)O)C(=O)N[C@@H](CCCCN)C(=O)N[C@H](C(=O)N[C@@H](CCCCNC(=O)CCCCCCCCCCCCCCC(=O)O)C(=O)N[C@@H](CCC(N)=O)C(=O)N[C@@H](CCC(N)=O)C(=O)N[C@@H](CC(=O)O)C(=O)N[C@@H](Cc1ccccc1)C(=O)N[C@H](C(=O)N[C@@H](CC(N)=O)C(=O)N[C@@H](Cc1c[nH]c2ccccc12)C(=O)N[C@@H](CC(C)C)C(=O)N[C@@H](CC(C)C)C(=O)N[C@@H](C)C(=O)N[C@@H](CCC(N)=O)C(=O)N[C@@H](CCCCN)C(N)=O)C(C)C)[C@@H](C)CC
B4: AT143 [hGIP(3-30)NH2[M14L; H18K]-C16/18] (peptide)
peptide: EGTFISDYSIALDKIK(Palmitoyl)QQDFVNWLLAQK-NH2
modifications: N-terminus assumed
SMILES: CCCCCCCCCCCCCCCC(=O)NCCCC[C@H](NC(=O)[C@@H](NC(=O)[C@H](CCCCN)NC(=O)[C@H](CC(=O)O)NC(=O)[C@H](CC(C)C)NC(=O)[C@H](C)NC(=O)[C@@H](NC(=O)[C@H](CO)NC(=O)[C@H](Cc1ccc(O)cc1)NC(=O)[C@H](CC(=O)O)NC(=O)[C@H](CO)NC(=O)[C@@H](NC(=O)[C@H](Cc1ccccc1)NC(=O)[C@@H](NC(=O)CNC(=O)[C@@H](N)CCC(=O)O)[C@@H](C)O)[C@@H](C)CC)[C@@H](C)CC)[C@@H](C)CC)C(=O)N[C@@H](CCC(N)=O)C(=O)N[C@@H](CCC(N)=O)C(=O)N[C@@H](CC(=O)O)C(=O)N[C@@H](Cc1ccccc1)C(=O)N[C@H](C(=O)N[C@@H](CC(N)=O)C(=O)N[C@@H](Cc1c[nH]c2ccccc12)C(=O)N[C@@H](CC(C)C)C(=O)N[C@@H](CC(C)C)C(=O)N[C@@H](C)C(=O)N[C@@H](CCC(N)=O)C(=O)N[C@@H](CCCCN)C(N)=O)C(C)C
B5: AT175 [hGIP(5-30)NH2[A13K]-C16diacid/13] (peptide)
peptide: TFISDYSIK(C16 diacid)MDKIHQQDFVNWLLAQK-NH2
modifications: N-terminus assumed
SMILES: CC[C@H](C)[C@H](NC(=O)[C@H](CCCCN)NC(=O)[C@H](CC(=O)O)NC(=O)[C@H](CCSC)NC(=O)[C@H](CCCCNC(=O)CCCCCCCCCCCCCCC(=O)O)NC(=O)[C@@H](NC(=O)[C@H](CO)NC(=O)[C@H](Cc1ccc(O)cc1)NC(=O)[C@H](CC(=O)O)NC(=O)[C@H](CO)NC(=O)[C@@H](NC(=O)[C@H](Cc1ccccc1)NC(=O)[C@@H](N)[C@@H](C)O)[C@@H](C)CC)[C@@H](C)CC)C(=O)N[C@@H](Cc1c[nH]cn1)C(=O)N[C@@H](CCC(N)=O)C(=O)N[C@@H](CCC(N)=O)C(=O)N[C@@H](CC(=O)O)C(=O)N[C@@H](Cc1ccccc1)C(=O)N[C@H](C(=O)N[C@@H](CC(N)=O)C(=O)N[C@@H](Cc1c[nH]c2ccccc12)C(=O)N[C@@H](CC(C)C)C(=O)N[C@@H](CC(C)C)C(=O)N[C@@H](C)C(=O)N[C@@H](CCC(N)=O)C(=O)N[C@@H](CCCCN)C(N)=O)C(C)C
B6: AT181 [hGIP(5-30)NH2[D21K]-C16diacid/21] (peptide)
peptide: TFISDYSIAMDKIHQQK(C16 diacid)FVNWLLAQK-NH2
modifications: N-terminus assumed
SMILES: CC[C@H](C)[C@H](NC(=O)[C@H](CO)NC(=O)[C@H](Cc1ccc(O)cc1)NC(=O)[C@H](CC(=O)O)NC(=O)[C@H](CO)NC(=O)[C@@H](NC(=O)[C@H](Cc1ccccc1)NC(=O)[C@@H](N)[C@@H](C)O)[C@@H](C)CC)C(=O)N[C@@H](C)C(=O)N[C@@H](CCSC)C(=O)N[C@@H](CC(=O)O)C(=O)N[C@@H](CCCCN)C(=O)N[C@H](C(=O)N[C@@H](Cc1c[nH]cn1)C(=O)N[C@@H](CCC(N)=O)C(=O)N[C@@H](CCC(N)=O)C(=O)N[C@@H](CCCCNC(=O)CCCCCCCCCCCCCCC(=O)O)C(=O)N[C@@H](Cc1ccccc1)C(=O)N[C@H](C(=O)N[C@@H](CC(N)=O)C(=O)N[C@@H](Cc1c[nH]c2ccccc12)C(=O)N[C@@H](CC(C)C)C(=O)N[C@@H](CC(C)C)C(=O)N[C@@H](C)C(=O)N[C@@H](CCC(N)=O)C(=O)N[C@@H](CCCCN)C(N)=O)C(C)C)[C@@H](C)CC
B7: AT117 [hGIP(3-30)NH2[H18K]-C16/18] (peptide)
peptide: EGTFISDYSIAMDKIK(Palmitoyl)QQDFVNWLLAQK-NH2
modifications: N-terminus assumed
SMILES: CCCCCCCCCCCCCCCC(=O)NCCCC[C@H](NC(=O)[C@@H](NC(=O)[C@H](CCCCN)NC(=O)[C@H](CC(=O)O)NC(=O)[C@H](CCSC)NC(=O)[C@H](C)NC(=O)[C@@H](NC(=O)[C@H](CO)NC(=O)[C@H](Cc1ccc(O)cc1)NC(=O)[C@H](CC(=O)O)NC(=O)[C@H](CO)NC(=O)[C@@H](NC(=O)[C@H](Cc1ccccc1)NC(=O)[C@@H](NC(=O)CNC(=O)[C@@H](N)CCC(=O)O)[C@@H](C)O)[C@@H](C)CC)[C@@H](C)CC)[C@@H](C)CC)C(=O)N[C@@H](CCC(N)=O)C(=O)N[C@@H](CCC(N)=O)C(=O)N[C@@H](CC(=O)O)C(=O)N[C@@H](Cc1ccccc1)C(=O)N[C@H](C(=O)N[C@@H](CC(N)=O)C(=O)N[C@@H](Cc1c[nH]c2ccccc12)C(=O)N[C@@H](CC(C)C)C(=O)N[C@@H](CC(C)C)C(=O)N[C@@H](C)C(=O)N[C@@H](CCC(N)=O)C(=O)N[C@@H](CCCCN)C(N)=O)C(C)C

What follows are binders tested against T1, human GIP receptor (assay: 125I-hGIP(1-42) competition binding, COS-7 cells expressing human GIPR).
Method: (§1) After incubation, the cells were washed twice in ice-cold binding buffer (+/−2% HSA) and lysed using 200 mM NaOH with 1% SDS for 30 min. Nonspecific binding was determined as the binding of radioactive ligand to untransfected cells.

Q: With B1 as the binder, how does the IC50 read?
A: 71.2 nM

Q: For B2, which IC50 is on record?
A: 25 nM

Q: How did the IC50 turn out when B3 was run?
A: 7.9 nM

Q: Which IC50 does the source give for B4 here?
A: 86.1 nM

The binders below were run against T1, human GIP receptor (assay: 125I-hGIP(1-42) competition binding, COS-7 cells expressing human GIPR, 0.1% casein (no HSA)).
Method: as §1

Q: How did the IC50 turn out when B1 was run?
A: 61.5 nM

Q: With B2 as the binder, how does the IC50 read?
A: 25 nM

Q: Which IC50 does the source give for B3 here?
A: 7.9 nM

Q: Which IC50 does the source give for B4 here?
A: 86.1 nM

What follows are binders tested against T2, human serum albumin (human, UniProt P02768 25-609) (assay: 125I-human GIP competition binding on hGIPR COS-7 cells with and without 2% HSA; fold change of IC50 taken as HSA binding).
T2 construct: also called HSA; human albumin
T2 sequence (P02768 25-609 limits assumed): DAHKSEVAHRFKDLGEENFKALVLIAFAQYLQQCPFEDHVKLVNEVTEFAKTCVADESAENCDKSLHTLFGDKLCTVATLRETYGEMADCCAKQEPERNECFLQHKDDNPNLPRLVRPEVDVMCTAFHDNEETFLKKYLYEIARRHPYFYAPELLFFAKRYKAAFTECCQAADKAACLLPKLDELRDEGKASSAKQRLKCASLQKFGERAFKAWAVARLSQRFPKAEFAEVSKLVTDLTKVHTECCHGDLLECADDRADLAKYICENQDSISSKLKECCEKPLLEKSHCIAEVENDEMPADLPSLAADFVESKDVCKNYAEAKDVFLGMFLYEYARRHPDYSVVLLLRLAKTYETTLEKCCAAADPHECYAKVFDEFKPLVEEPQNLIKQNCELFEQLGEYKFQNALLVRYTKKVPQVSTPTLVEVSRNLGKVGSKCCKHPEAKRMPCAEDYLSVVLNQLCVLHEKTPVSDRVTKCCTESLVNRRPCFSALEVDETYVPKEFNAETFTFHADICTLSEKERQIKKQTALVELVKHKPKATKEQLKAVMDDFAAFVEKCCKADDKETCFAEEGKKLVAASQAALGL
Method: as §1

Q: Does B5 bind?
A: binds

Q: Does B6 bind?
A: binds

Q: Does B7 bind?
A: binds

Each binder was assayed against T1, human GIP receptor (assay: cell-based or functional assay).

Q: Which “cAMP - antagonisme IC50” value does the source give for B1 here?
A: 11.9 nM

Q: And the “cAMP - antagonisme fold (paired)” value?
A: 1.2 fold

Q: For B2, which “cAMP - antagonisme IC50” value is on record?
A: 5.6 nM

Q: And the “cAMP - antagonisme fold (paired)” value?
A: 0.1 fold

Q: B3 was tested. Which “cAMP - antagonisme IC50” value did it give?
A: 4.5 nM

Q: What about the “cAMP - antagonisme fold (paired)” value of the same binder?
A: 0.1 fold

Q: Which “cAMP - antagonisme IC50” value does the source give for B4 here?
A: 13.3 nM

Q: What about the “cAMP - antagonisme fold (paired)” value of the same binder?
A: 0.3 fold

These binders were tested against T1, human GIP receptor (assay: 125I-hGIP competition binding on hGIPR COS-7 cells; fold in affinity, paired, reference taken as GIP(3-30)NH2).
Method: as §1

Q: For B1, which “fold (paired)” value is on record?
A: 5 fold

Q: For B2, which “fold (paired)” value is on record?
A: 3 fold

Q: How did the “fold (paired)” value turn out when B3 was run?
A: 1 fold

Q: B4 was tested. Which “fold (paired)” value did it give?
A: 11 fold

The binders below were run against T1, human GIP receptor (assay: ratio of IC50 with 2% HSA to IC50 with 0.1% casein, 125I-hGIP competition binding on hGIPR COS-7 cells).
Method: as §1

Q: How did the “Fold change (IC50 2% HSA / IC50 0.1% casein)” value turn out when B1 was run?
A: 5.2 fold

Q: B2 was tested. Which “Fold change (IC50 2% HSA / IC50 0.1% casein)” value did it give?
A: 0.8 fold

Q: B3 was tested. Which “Fold change (IC50 2% HSA / IC50 0.1% casein)” value did it give?
A: 2 fold

Q: For B4, which “Fold change (IC50 2% HSA / IC50 0.1% casein)” value is on record?
A: 1.2 fold

The binders below were run against T1, human GIP receptor (assay: 125I-hGIP(1-42) competition binding, COS-7 cells expressing human GIPR, 2% HSA).
Method: as §1

Q: With B1 as the binder, how does the IC50 read?
A: 321 nM

Q: How did the IC50 turn out when B2 was run?
A: 20 nM

Q: How did the IC50 turn out when B3 was run?
A: 16 nM

Q: Which IC50 does the source give for B4 here?
A: 105 nM
